Assay results reported in PMC10192418 (2023).
Ends that are not written are not given here. FAM = 5(6)-carboxyfluorescein (N-terminal)

B1: B-RCAL (BÜHLMANN recombinant calprotectin; His6-linker-S100A9-linker-S100A8) (complex)
chain: MTCKMSQLERNIETIINTFHQYSVKLGHPDTLNQGEFKELVRKDLQNFLKKENKNEKVIEHIMEDLDTNADKQLSFEEFIMLMARLTWASHEKMHEGDEGPGHHHKPGLGEGTPLEVLFQGPMLTELEKALNSIIDVYHKYSLIKGNFHAVYRDDLKKLLETECPQYIRKKGADVWFKELDINTDGAVNFQEFLILVIKMGVAAHKKSHEESHKE

Tests used:
[1] = target: B1; experiment: SPR
Peptide 2 [2] = experiment: SPR
Peptide 7 [3] = experiment: SPR
Peptide 3 = experiment: SPR
Peptide 6 [4] = experiment: SPR
Peptide 1 [5] = experiment: SPR
Peptide 4 [6] = experiment: SPR
Peptide 2 [7] = experiment: FP; Ca2+
Peptide 5 = experiment: FP; Ca2+
Peptide 7 [8] = experiment: FP; Ca2+
Peptide 6 [9] = experiment: FP; Ca2+
Peptide 1 [10] = experiment: FP; Ca2+
Peptide 4 [11] = experiment: FP; Ca2+
Peptide 8 = experiment: FP; calcium (tetramer)
Peptide 12 = experiment: FP; calcium (tetramer)
Peptide 9 = experiment: FP; calcium (tetramer)
Peptide 13 = experiment: FP; calcium (tetramer)
Peptide 10 = experiment: FP; calcium (tetramer)
Peptide 11 = experiment: FP; calcium (tetramer)

{FAM}-RSPESVAFPMFQSHWYSG [linear peptide 3]
Kd [1]: 46 nM

B1
Kd (Peptide 2 [2]): 400 nM | Kd (Peptide 7 [3]): 840 nM | Kd (Peptide 3): 340 nM | Kd (Peptide 6 [4]): 310 nM | Kd (Peptide 1 [5]): 1220 nM | Kd (Peptide 4 [6]): 1100 nM | Kd (Peptide 2 [7]): 22 nM | Kd (Peptide 5): 55 nM | Kd (Peptide 7 [8]): 25 nM | Kd (Peptide 6 [9]): 10 nM | Kd (Peptide 1 [10]): 38 nM | Kd (Peptide 4 [11]): 34 nM | Kd (Peptide 8): 89 nM | Kd (Peptide 12): 37000 nM | Kd (Peptide 9): 29000 nM | Kd (Peptide 13): 154000 nM | Kd (Peptide 10): 190000 nM | Kd (Peptide 11): 42000 nM

Fluorescein-RCPECVAFPMFQCHWYCG (not fully specified (bridges); also: disulfide pairing not given here) [peptide 3 isomer 3]
Kd [1]: 270 nM

Fluorescein-RCPECVAFPMFQCHWYCG (not fully specified (bridges); also: disulfide pairing not given here) [peptide 3 isomer 2]
Kd [1]: 500 nM
